Tests used:
[1] = tested on: THP-1 cells; assay: OSM-induced TNFα production by PMA-differentiated THP-1 cells (ELISA, RT-PCR); format: cell-based, human
Description: Human pro-monocytic line THP-1 cells (ECACC) were passaged twice weekly in RPMI supplemented with 10% heat-inactivated FCS, 10 mM hepes, 1% non-essential amino acids (all from Sigma), 4 mM L-glutamine (Hyclone), 100 U/ml penicillin+100 μg/ml streptomycin (Hyclone) (complete medium, CM) and then PMA (Sigma) was added to washed cells at 1 ug/ml and Incubated at 37° C. for 30 minutes. Cells were washed ×3 in pre-warmed PBS, resuspended in CM and plated out at 1.5×10^5 cells/ml in 96-well flat bottomed plates (Costar). Plates were incubated for 48 hours at 37° C., 5% CO2, then washed with PBS, the media replaced, and incubated for a further 24 hours. Cells were washed ×1 in PBS before use.
(§1) Lyophilised, recombinant human oncostatin M (rhOSM) was purchased from R&D Systems diluted to 10 μg/ml in sterile PBS+0.1% BSA (Sigma) and aliquots stored at −20° C. until use. rhOSM, E. coli-derived LPS or CM were added to triplicate wells of macrophages, monocytes or Thp-1 cells, prepared as above and incubated for 7 hours at 37° C., 5% CO2. Supernatants were harvested and frozen at −20° C. until testing for TNFα protein by ELISA. In assays designed to co-assay for TNFα mRNA, cells were incubated as above for 4 hrs, washed once in PBS and lysed in RNA extraction buffer (RNAzole).
RNA was detected as follows. Total RNA was prepared according to the manufacturer's instructions and stored at −80° C. in DEPC-treated water. For RT-PCR, approximately 1 ug of RNA was reverse transcribed using oligo dT priming (first strand cDNA synthesis kit, Pharmacia Biotech) and the resulting cDNA subjected to 30 cycles of PCR using the following primers for TNFα (Clontech amplimers): forward—[…], (SEQ ID 1) reverse-[…] CCAGAC (SEQ ID 2). The amplified product (444 bp) was separated by agarose gel (2%) electrophoresis and visualized by ethidium bromide staining.
The human pro-monocytic line THP-1, was induced to differentiate using PMA, washed thoroughly, and incubated with recombinant human OSM as described above. Culture supernatants were removed at 8 hours and assayed for TNFα production by specific ELISA (TNF Quantikine, R&D Systems) in accordance with manufacturers instructions. OSM induced a dose-related release of TNFα, measurable above 1 ng/ml OSM and maximal at 200-500 ng/ml, routinely reaching secreted levels of greater than 2500 pg/ml TNFα.

[2] = tested on: human blood macrophages; assay: OSM-induced TNFα secretion by blood macrophages (ELISA); format: cell-based; conditions: co-incubated 8 hr with OSM, n=3 donors
Description: as §1
Importantly, TNFα induction was not due to contaminating endotoxin as pre-boiling of OSM completely ablated TNFα secretion (data not shown). Also, removal of OSM by immunoprecipitation using specific antibody abolished activity (data not shown). These findings were extended to include human blood monocytes, pre-activated with interferon-γ and human blood macrophages, differentiated in culture for 7 days. Both cell types, when co-incubated for 8 hr with OSM, secreted TNFα, as measured by ELISA. Mean TNFα secretion by monocytes was 1447 pg/ml (range 137-4709 pg/ml; n=4 donors) and 542 pg/ml by macrophages (range 62-1428 pg/ml; n=3 donors).

[3] = tested on: Bovine nasal cartilage; assay: Cartilage degradation assay (hydroxyproline/collagen release, MMP1)
Description: Bovine nasal septum cartilage was held at 4° C. overnight after slaughter. 2 mm diameter discs were cut from 2 mm slices and washed twice in HBSS. Three discs per well of a 24 well plate (Costar) were incubated at 37° C., 5% CO2 for 24 hrs in a 600 μl volume of DMEM (Sigma) containing 25 mM HEPES supplemented with 2 mM glutamine, 100 μg/ml streptomycin, 100 U/ml penicillin and 2.5 μg/ml amphotericin B (cartilage degradation medium, CDM). Cartilage was cultured in quadruplicate wells in either: 600 μl of CDM alone, 2, 10 or 50 ng/ml human recombinant TNFα alone, 10 ng/ml rhOSM alone (R&D systems) or TNFα+OSM and incubated for 7 days at 37° C., 5% CO2. Supernatants were harvested and replaced with fresh medium containing identical test reagents to day 1. […] The cumulative level of OH-proline released into the medium by day 14 was measured and expressed as the percentage of total released as set out below.
Hydroxyproline release was assayed (as a measure of collagen degradation) using a microtitre plate modification of the method in (Bergmann I and loxley R. (1963) Anal. Biochem. 35 1961-1965. Chloramine T (7%) w/v) was diluted 1:4 in acetate citrate buffer (57 g sodium acetate, 37.5 g tri-sodium citrate, 5.5 g citrate acid, 385 ml propan-2-ol per liter water). […] The plate was heated to 65° C. for 35 min, cooled and the absorbance at 560 nm determined. […]

[4] = tested on: human blood monocytes; assay: OSM-induced TNFα secretion by interferon-γ pre-activated blood monocytes (ELISA); format: cell-based; conditions: co-incubated 8 hr with OSM, n=4 donors
Description: Human buffy coats (North London Blood Transfusion Centre) were diluted 1:3 with PBS, layered onto Lymphoprep (Nycomed UK) and centrifuged at 600×g for 30 minutes at room temperature. Harvested PBMC were washed 3 times in PBS, counted, and resuspended in 80 mls RPMI 1640/10% FCS at 5×10^6 cells/ml. 20 mls were put into each of four 175 cm^2 flasks and Incubated overnight at 37° C. to allow monocytes to adhere. Non-adherent cells were discarded and adherent cells scraped off after incubation with ice-cold versene at 4° C. for 15 minutes. Cells were washed twice in PBS, resuspended in RPMI 1640+10% heat inactivated human serum (Sigma) at 6.9×10^5/ml and 250 ul cell suspension placed into each well of 96-well flat bottomed plate (Costar). To half the plate was added 100 IU/ml IFNγ (Genzyme), the other half left as control. Plates were incubated overnight at 37° C., 5% CO2 prior to assay. […]
Importantly, TNFα induction was not due to contaminating endotoxin as pre-boiling of OSM completely ablated TNFα secretion (data not shown). […] Both cell types, when co-incubated for 8 hr with OSM, secreted TNFα, as measured by ELISA. […]

B1: OSM: recombinant human oncostatin M purchased from R&D Systems (protein)
chain: AAIGSCSKEYRVLLGQLQKQTDLMQDTSRLLDPYIRIQGLDVPKLREHCRERPGAFPSEETLRGLGRRGFLQTLNATLGCVLHRLADLEQRLPKAQDLERSGLNIEDLEKLQMARPNILGLRNNIYCMAQLLDNSDTAEPTKAGRGASQPPTPTPASDAFQRKLEGCRFLHGYHRFMHSVGRVFSKWGESPNRSRRHSPHQALRKGVRRTRPSRKGKRLMTRGQLPR
How did the “Expression of TNFα message (RT-PCR)” value ([1]; 4 hr with 100 ng/ml OSM, relative to unstimulated control cells) turn out when B1 was run?
Its value is “strongly increased”.

What about the “OSM concentration above which TNFα release is measurable” value ([1]; 8 hours) of the same molecule?
Its value is “above 1 ng/ml”.

What about the “OSM concentration at which TNFα release is maximal” value ([1]; 8 hours) of the same molecule?
The value was 200 to 500 ng/mL.

What about the “secreted levels of TNFα” value ([1]; PMA-differentiated THP-1, supernatants at 8 hours, at maximal OSM) of the same molecule?
The value was “greater than 2500 pg/ml”.

And the “Mean TNFα secretion by macrophages” value [2]?
Its value is 542 pg/mL.

What about the collagen release ([3]; OSM alone at 10 ng/ml, day 14) of the same molecule?
The collagen release was “did not induce collagen release”.

What about the “MMP1 secretion (total collagenase activity)” value ([3]; day 7, OSM 10 ng/ml, TNFα 50 ng/ml) of the same molecule?
The value was “neither OSM nor TNFα alone, used at 10 ng/ml or 50 ng/ml, respectively, induced significant MMP1 secretion”.

And the “Mean TNFα secretion by monocytes” value [4]?
Its value is 1447 pg/mL.
